Experiments:
pxENB9-FLS-CT-His = pxENB9-FLS-CT-His (SARS-CoV-2, UniProt P0DTC2 15-1213)
pxENB17-RBD-His [1] = target: T1, pxENB17-RBD-His (SARS-CoV-2, UniProt P0DTC2 319-541)
pxENB17-RBD-His [2] = target: T1, pxENB17-RBD-His; test: BLI (Octet), ACE2 construct loaded on SA tips by its tag, RBD as analyte

B1: pxEBNCP13_hACE2-AAA-SBP (receptor)
chain: QSTIEEQAKTFLDKFNHEAEDLFYQSSLASWNYNTNITEENVQNMNNAGDKWSAFLKEQSTLAQMYPLQEIQNLTVKLQLQALQQNGSSVLSEDKSKRLNTILNTMSTIYSTGKVCNPDAPAECLLLEPGLNEIMANSLDYNERLWAWESWRSEVGKALRPLYEEYVVLKNEMARANHYEDYGDYWRGDYEVNGVDGYDYSRGQLIEDVEHTFEEIKPLYEHLHAYVRAKLMNAYPSYISPIGCLPAHLLGDMWGRFWTNLYSLTVPFGQKPNIDVTDAMVDQAWDAQRIFKEAEKFFVSVGLPNMTQGFWENSMLTDPGNVQKAVCHPTAWDLGKGDFRILMCTKVTMDDFLTAHHEMGHIQYDMAYAAQPFLLRNGANEGFHEAVGEIMSLSAATPKHLKSIGLLSPDFQEDNETEINFLLKQALTIVGTLPFTYMLEKWRWMVFKGEIPKDQWMKKWWEMKREIVGVVEPVPHDETYCDPASLFHVSNDYSFIRYYTRTLYQFQFQEALCQAAKHEGPLHKCDISNSTEAGQKLFNMLRLGKSEPWTLALENVVGAKNMNVRPLLNYFEPLFTWLKDQNKNSFVGWSTDWSPYADGGSGMDEKTTGWRGGHVVEGLAGELEQLRARLEHHPQGQREP
Kd (pxENB9-FLS-CT-His): 10.5 µM | Kd (pxENB17-RBD-His [1]): 0.401 µM | Response, shift in Wavelength (nm) (pxENB17-RBD-His [2]): 0.0102 nm

B2: pxEBNCP24_hACE2-AAA-p53-SBP (receptor)
chain: QSTIEEQAKTFLDKFNHEAEDLFYQSSLASWNYNTNITEENVQNMNNAGDKWSAFLKEQSTLAQMYPLQEIQNLTVKLQLQALQQNGSSVLSEDKSKRLNTILNTMSTIYSTGKVCNPDAPAECLLLEPGLNEIMANSLDYNERLWAWESWRSEVGKALRPLYEEYVVLKNEMARANHYEDYGDYWRGDYEVNGVDGYDYSRGQLIEDVEHTFEEIKPLYEHLHAYVRAKLMNAYPSYISPIGCLPAHLLGDMWGRFWTNLYSLTVPFGQKPNIDVTDAMVDQAWDAQRIFKEAEKFFVSVGLPNMTQGFWENSMLTDPGNVQKAVCHPTAWDLGKGDFRILMCTKVTMDDFLTAHHEMGHIQYDMAYAAQPFLLRNGANEGFHEAVGEIMSLSAATPKHLKSIGLLSPDFQEDNETEINFLLKQALTIVGTLPFTYMLEKWRWMVFKGEIPKDQWMKKWWEMKREIVGVVEPVPHDETYCDPASLFHVSNDYSFIRYYTRTLYQFQFQEALCQAAKHEGPLHKCDISNSTEAGQKLFNMLRLGKSEPWTLALENVVGAKNMNVRPLLNYFEPLFTWLKDQNKNSFVGWSTDWSPYADGGGSKPLDGEYFTLQIRGRERFEMFRELNEALELKDAQAGKEPGGGSGMDEKTTGWRGGHVVEGLAGELEQLRARLEHHPQGQREP
Kd (pxENB9-FLS-CT-His): 1e-06 µM | Kd (pxENB17-RBD-His [1]): 0.000231 µM | Response, shift in Wavelength (nm) (pxENB17-RBD-His [2]): 0.028 nm

B3: pxEBN9-ACE2-AAA-SBP-His (receptor)
chain: QSTIEEQAKTFLDKFNHEAEDLFYQSSLASWNYNTNITEENVQNMNNAGDKWSAFLKEQSTLAQMYPLQEIQNLTVKLQLQALQQNGSSVLSEDKSKRLNTILNTMSTIYSTGKVCNPDAPAECLLLEPGLNEIMANSLDYNERLWAWESWRSEVGKALRPLYEEYVVLKNEMARANHYEDYGDYWRGDYEVNGVDGYDYSRGQLIEDVEHTFEEIKPLYEHLHAYVRAKLMNAYPSYISPIGCLPAHLLGDMWGRFWTNLYSLTVPFGQKPNIDVTDAMVDQAWDAQRIFKEAEKFFVSVGLPNMTQGFWENSMLTDPGNVQKAVCHPTAWDLGKGDFRILMCTKVTMDDFLTAHHEMGHIQYDMAYAAQPFLLRNGANEGFHEAVGEIMSLSAATPKHLKSIGLLSPDFQEDNETEINFLLKQALTIVGTLPFTYMLEKWRWMVFKGEIPKDQWMKKWWEMKREIVGVVEPVPHDETYCDPASLFHVSNDYSFIRYYTRTLYQFQFQEALCQAAKHEGPLHKCDISNSTEAGQKLFNMLRLGKSEPWTLALENVVGAKNMNVRPLLNYFEPLFTWLKDQNKNSFVGWSTDWSPYADGGGSMDEKTTGWRGGHVVEGLAGELEQLRARLEHHPQGQREPHHHHHHHH
Kd (pxENB9-FLS-CT-His): 13.4 µM | Kd (pxENB17-RBD-His [1]): 32.6 µM | Response, shift in Wavelength (nm) (pxENB17-RBD-His [2]): 0.0002 nm
